Patent publication US20240376151A1, “STAPLED PEPTIDES AND METHODS THEREOF” (FOG PHARMACEUTICALS, INC., priority 2022, published 2024)

Target: T1, beta-catenin (Homo sapiens, UniProt P35222)
T1 construct: made in house; host or cells: E. coli BL21 (DE3) pLysS
T1 sequence (P35222 134-665): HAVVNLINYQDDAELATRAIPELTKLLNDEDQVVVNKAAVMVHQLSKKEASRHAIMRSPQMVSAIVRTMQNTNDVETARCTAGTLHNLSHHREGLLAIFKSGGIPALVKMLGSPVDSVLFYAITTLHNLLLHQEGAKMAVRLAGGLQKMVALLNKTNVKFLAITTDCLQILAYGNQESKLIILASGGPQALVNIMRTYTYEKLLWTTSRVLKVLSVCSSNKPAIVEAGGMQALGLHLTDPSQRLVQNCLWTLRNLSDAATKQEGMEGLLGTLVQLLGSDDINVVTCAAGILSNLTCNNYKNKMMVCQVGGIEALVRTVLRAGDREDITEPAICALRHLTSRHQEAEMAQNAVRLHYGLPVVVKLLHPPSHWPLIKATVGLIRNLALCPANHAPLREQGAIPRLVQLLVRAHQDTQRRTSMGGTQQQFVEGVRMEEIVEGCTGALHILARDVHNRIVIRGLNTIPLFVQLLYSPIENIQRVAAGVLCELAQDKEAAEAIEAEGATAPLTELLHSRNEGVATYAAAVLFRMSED
Experiment: Phage Library Screening with NGS, beta-catenin
Format: binding
Settings: for Target Concentration 10 (phage screen NGS readout): beta-catenin target concentration 10; for Target Concentration 10 (phage screen NGS readout) / Target Concentration 30 (phage screen NGS readout) / Target Concentration 100 (phage screen NGS readout) / Target Concentration 300 (phage screen NGS readout): no competitor; for Target Concentration 30 (phage screen NGS readout): beta-catenin target concentration 30; for Target Concentration 100 (phage screen NGS readout): beta-catenin target concentration 100; for Target Concentration 300 (phage screen NGS readout): beta-catenin target concentration 300; for Target Concentration 1000 (phage screen NGS readout): beta-catenin target concentration 1000

## DPARHECILAAHICEWE
First column
  Target Concentration BLANK (phage screen NGS readout): 1
Fourth column
  Target Concentration BLANK (phage screen NGS readout): 0
Second column
  Target Concentration BLANK (phage screen NGS readout): 2
Third column
  Target Concentration BLANK (phage screen NGS readout): 2
  Target Concentration 10 (phage screen NGS readout): 41
  Target Concentration 30 (phage screen NGS readout): 151
  Target Concentration 100 (phage screen NGS readout): 612
  Target Concentration 300 (phage screen NGS readout): 1704
First 1000 column
  Target Concentration 1000 (phage screen NGS readout): 1683
Second 1000 column
  Target Concentration 1000 (phage screen NGS readout): 1509

## DPANVECEWAAIHCSLV
First column
  Target Concentration BLANK (phage screen NGS readout): 0
Fourth column
  Target Concentration BLANK (phage screen NGS readout): 0
Second column
  Target Concentration BLANK (phage screen NGS readout): 0
Third column
  Target Concentration BLANK (phage screen NGS readout): 0
  Target Concentration 10 (phage screen NGS readout): 13
  Target Concentration 30 (phage screen NGS readout): 2
  Target Concentration 100 (phage screen NGS readout): 19
  Target Concentration 300 (phage screen NGS readout): 158
First 1000 column
  Target Concentration 1000 (phage screen NGS readout): 164
Second 1000 column
  Target Concentration 1000 (phage screen NGS readout): 187

## DPAIIHCYQAAFQCQYM
First column
  Target Concentration BLANK (phage screen NGS readout): 0
Fourth column
  Target Concentration BLANK (phage screen NGS readout): 0
Second column
  Target Concentration BLANK (phage screen NGS readout): 0
Third column
  Target Concentration BLANK (phage screen NGS readout): 0
  Target Concentration 10 (phage screen NGS readout): 0
  Target Concentration 30 (phage screen NGS readout): 0
  Target Concentration 100 (phage screen NGS readout): 0
  Target Concentration 300 (phage screen NGS readout): 0
First 1000 column
  Target Concentration 1000 (phage screen NGS readout): 7
Second 1000 column
  Target Concentration 1000 (phage screen NGS readout): 0

## DPAVVECYEAAYTCQYI
First column
  Target Concentration BLANK (phage screen NGS readout): 0
Fourth column
  Target Concentration BLANK (phage screen NGS readout): 0
Second column
  Target Concentration BLANK (phage screen NGS readout): 0
Third column
  Target Concentration BLANK (phage screen NGS readout): 0
  Target Concentration 10 (phage screen NGS readout): 0
  Target Concentration 30 (phage screen NGS readout): 0
  Target Concentration 100 (phage screen NGS readout): 0
  Target Concentration 300 (phage screen NGS readout): 0
First 1000 column
  Target Concentration 1000 (phage screen NGS readout): 0
Second 1000 column
  Target Concentration 1000 (phage screen NGS readout): 13

## DPAEAICILAAHECWWD
First column
  Target Concentration BLANK (phage screen NGS readout): 0
Fourth column
  Target Concentration BLANK (phage screen NGS readout): 0
Second column
  Target Concentration BLANK (phage screen NGS readout): 0
Third column
  Target Concentration BLANK (phage screen NGS readout): 0
  Target Concentration 10 (phage screen NGS readout): 19
  Target Concentration 30 (phage screen NGS readout): 38
  Target Concentration 100 (phage screen NGS readout): 139
  Target Concentration 300 (phage screen NGS readout): 235
First 1000 column
  Target Concentration 1000 (phage screen NGS readout): 322
Second 1000 column
  Target Concentration 1000 (phage screen NGS readout): 228

## DPAIIRCYEAAFYCQNY
First column
  Target Concentration BLANK (phage screen NGS readout): 0
Fourth column
  Target Concentration BLANK (phage screen NGS readout): 0
Second column
  Target Concentration BLANK (phage screen NGS readout): 0
Third column
  Target Concentration BLANK (phage screen NGS readout): 1
  Target Concentration 10 (phage screen NGS readout): 0
  Target Concentration 30 (phage screen NGS readout): 3
  Target Concentration 100 (phage screen NGS readout): 10
  Target Concentration 300 (phage screen NGS readout): 67
First 1000 column
  Target Concentration 1000 (phage screen NGS readout): 93
Second 1000 column
  Target Concentration 1000 (phage screen NGS readout): 94

## CC[C@H](C)[C@H](NC(=O)[C@H](C)NC(=O)[C@H](C)NC(=O)[C@H](Cc1c[nH]c2ccccc12)NC(=O)[C@H](CCC(=O)O)NC(=O)[C@H](CS)NC(=O)[C@H](CC(C)C)NC(=O)[C@H](CCC(=O)O)NC(=O)[C@H](CO)NC(=O)[C@H](C)NC(=O)[C@@H]1CCCN1C(=O)[C@H](CC(=O)O)NC(C)=O)C(=O)N[C@@H](Cc1c[nH]cn1)C(=O)N[C@@H](CS)C(=O)N[C@@H](CC(=O)O)C(=O)N[C@@H](CC(C)C)C(=O)N[C@H](C(N)=O)C(C)C
First column
  Target Concentration BLANK (phage screen NGS readout): 1
Fourth column
  Target Concentration BLANK (phage screen NGS readout): 1
Second column
  Target Concentration BLANK (phage screen NGS readout): 2
Third column
  Target Concentration BLANK (phage screen NGS readout): 3
  Target Concentration 10 (phage screen NGS readout): 19
  Target Concentration 30 (phage screen NGS readout): 41
  Target Concentration 100 (phage screen NGS readout): 163
  Target Concentration 300 (phage screen NGS readout): 495
First 1000 column
  Target Concentration 1000 (phage screen NGS readout): 605
Second 1000 column
  Target Concentration 1000 (phage screen NGS readout): 424

## DPAVHRCFWAAEHCDLI
First column
  Target Concentration BLANK (phage screen NGS readout): 0
Fourth column
  Target Concentration BLANK (phage screen NGS readout): 0
Second column
  Target Concentration BLANK (phage screen NGS readout): 2
Third column
  Target Concentration BLANK (phage screen NGS readout): 0
  Target Concentration 10 (phage screen NGS readout): 0
  Target Concentration 30 (phage screen NGS readout): 2
  Target Concentration 100 (phage screen NGS readout): 11
  Target Concentration 300 (phage screen NGS readout): 86
First 1000 column
  Target Concentration 1000 (phage screen NGS readout): 95
Second 1000 column
  Target Concentration 1000 (phage screen NGS readout): 62

## DPAVLDCHIAALDCHAH
First column
  Target Concentration BLANK (phage screen NGS readout): 0
Fourth column
  Target Concentration BLANK (phage screen NGS readout): 0
Second column
  Target Concentration BLANK (phage screen NGS readout): 0
Third column
  Target Concentration BLANK (phage screen NGS readout): 0
  Target Concentration 10 (phage screen NGS readout): 0
  Target Concentration 30 (phage screen NGS readout): 1
  Target Concentration 100 (phage screen NGS readout): 0
  Target Concentration 300 (phage screen NGS readout): 10
First 1000 column
  Target Concentration 1000 (phage screen NGS readout): 39
Second 1000 column
  Target Concentration 1000 (phage screen NGS readout): 3

## DPAESDCILAAYICYVE
First column
  Target Concentration BLANK (phage screen NGS readout): 0
Fourth column
  Target Concentration BLANK (phage screen NGS readout): 0
Second column
  Target Concentration BLANK (phage screen NGS readout): 2
Third column
  Target Concentration BLANK (phage screen NGS readout): 0
  Target Concentration 10 (phage screen NGS readout): 0
  Target Concentration 30 (phage screen NGS readout): 1
  Target Concentration 100 (phage screen NGS readout): 22
  Target Concentration 300 (phage screen NGS readout): 51
First 1000 column
  Target Concentration 1000 (phage screen NGS readout): 69
Second 1000 column
  Target Concentration 1000 (phage screen NGS readout): 40

## DPAFLDCHIAAWTCNEF
First column
  Target Concentration BLANK (phage screen NGS readout): 0
Fourth column
  Target Concentration BLANK (phage screen NGS readout): 0
Second column
  Target Concentration BLANK (phage screen NGS readout): 0
Third column
  Target Concentration BLANK (phage screen NGS readout): 0
  Target Concentration 10 (phage screen NGS readout): 0
  Target Concentration 30 (phage screen NGS readout): 1
  Target Concentration 100 (phage screen NGS readout): 10
  Target Concentration 300 (phage screen NGS readout): 15
First 1000 column
  Target Concentration 1000 (phage screen NGS readout): 28
Second 1000 column
  Target Concentration 1000 (phage screen NGS readout): 15

## DPAILQCYEAAFSCHYQ
First column
  Target Concentration BLANK (phage screen NGS readout): 0
Fourth column
  Target Concentration BLANK (phage screen NGS readout): 0
Second column
  Target Concentration BLANK (phage screen NGS readout): 0
Third column
  Target Concentration BLANK (phage screen NGS readout): 0
  Target Concentration 10 (phage screen NGS readout): 0
  Target Concentration 30 (phage screen NGS readout): 9
  Target Concentration 100 (phage screen NGS readout): 40
  Target Concentration 300 (phage screen NGS readout): 54
First 1000 column
  Target Concentration 1000 (phage screen NGS readout): 39
Second 1000 column
  Target Concentration 1000 (phage screen NGS readout): 42

## DPAHWSCEWAAEHCRLI
First column
  Target Concentration BLANK (phage screen NGS readout): 0
Fourth column
  Target Concentration BLANK (phage screen NGS readout): 0
Second column
  Target Concentration BLANK (phage screen NGS readout): 0
Third column
  Target Concentration BLANK (phage screen NGS readout): 0
  Target Concentration 10 (phage screen NGS readout): 0
  Target Concentration 30 (phage screen NGS readout): 1
  Target Concentration 100 (phage screen NGS readout): 0
  Target Concentration 300 (phage screen NGS readout): 31
First 1000 column
  Target Concentration 1000 (phage screen NGS readout): 19
Second 1000 column
  Target Concentration 1000 (phage screen NGS readout): 64

## DPAWWQCDHAALICIAE
First column
  Target Concentration BLANK (phage screen NGS readout): 0
Fourth column
  Target Concentration BLANK (phage screen NGS readout): 0
Second column
  Target Concentration BLANK (phage screen NGS readout): 1
Third column
  Target Concentration BLANK (phage screen NGS readout): 2
  Target Concentration 10 (phage screen NGS readout): 28
  Target Concentration 30 (phage screen NGS readout): 127
  Target Concentration 100 (phage screen NGS readout): 422
  Target Concentration 300 (phage screen NGS readout): 637
First 1000 column
  Target Concentration 1000 (phage screen NGS readout): 830
Second 1000 column
  Target Concentration 1000 (phage screen NGS readout): 731
